These results are taken from patent US20060216231, “Methods for diagnosing and treating tumors and suppressing cd promoters” (published 2006).

Data set [1] deals with T1, hnRNP-K (GST fusion) (Homo sapiens, UniProt P61978 SEQ:1-463). The data set is described as follows: competition; 100-fold excess fails to compete n1 binding. As to conditions: tags: N-terminal GST fusion, expressed in E. coli XL-2 (construct from D. Levens). As to the method:
(§1) Binding reactions containing GST/hnRNP-K were performed in the absence (GST-K) or presence (+) of a 100 fold molar excess of unlabeled CD43 PyRo SS, the presence of Mut-11 (Mut) representing a mutant version of CD43 PyRo SS which fails to support PyRol binding Farokhzad et al., (2000) Nucleic Acids Research, 28:2256-2267) or the presence of an unrelated oligonucleotide (NS). The free probe and probe bound by the GST/hnRNP-K protein (GST:hnRNP-K) are arrowed.

In data set [2] the target is T1, hnRNP-K (GST fusion). The data set is described as follows: competition; unrelated competitor oligonucleotide; outcome not explicitly described in text. As to conditions: tags: N-terminal GST fusion, expressed in E. coli XL-2 (construct from D. Levens). How it is done: as §1
The target of data set [3] is T1, hnRNP-K (GST fusion). The data set is described as follows: EMSA; 70 mM KCl, 5 mM NaCl, 20 mM Tris pH 7.5, poly(dI-dC), 4 C; competed by 100-fold unlabeled self. As to conditions: tags: N-terminal GST fusion, expressed in E. coli XL-2 (construct from D. Levens); label: 32P 5'. How it is done:
as §1

With GGGCCCACTTCCTTCATATATG (ssDNA) [CD43 Mut-11], the binding result in data set [1] is “no binding”.
Turning to GAGTTAGCTCACTCATTAGG (ssDNA) [NS-SS], the binding result in data set [2] is on record as “no binding”.
Regarding GGGCCCACTTCCTTTCCCCTTG (ssDNA) [CD43 PyRo SS], the binding result in data set [3] was “binds”.
